Test system: rabbit corneal wound model
Assay: Corneal wound healing promotion action 1 (in vivo), approx. 6 mm corneal epithelial abrasion
Parameters: species or system Japanese white rabbit
Conditions: 5 μM eye drop
Experimental: (2) Corneal Wound Healing Promotion Action 1 (In Vivo)
Using a male Japanese white rabbit, a wound of approximately 6 mm in diameter was produced in the cornea by inducing corneal epithelial abrasion in accordance with the method of Cintron et al. (Ophthalmic Res., 11, pp. 90-96 (1979)). The wound area was measured using the fluorescein-stained area as an index. The effects of the test compound on corneal wound healing were examined.
The eye drops containing the respective concentrations of the test compound were instilled (30 μl at a time) at 0, 3, 6, 9, 12, 18, 24, 27, 30, 33, 36, 42, and 48 hours after inducing corneal epithelial abrasion. In measuring the wound area, fluorescein staining was carried out and a photograph of the cornea was measured. The fluorescein-stained area of the photographed cornea was computed using an image analysis processing system.
In Tables 1 and 2, the respective values indicate the mean value±standard deviation (n=6). Statistical analysis was carried out using Dunnett's multiple comparison with respect to PBS with the area of the corneal wound portion immediately after (0 hours after) corneal epithelial abrasion being set to 100% (*p<0.05, ** p<0.01; vs. control).

B1: EGF: Epidermal Growth Factor, polypeptide with a molecular weight of 6000, mitosis-promoting growth factor for corneal epithelium (protein, UniProt P01133 23-1207, looked up)
Pro-epidermal growth factor: PQHWSCPEGTLAGNGNSTCVGPAPFLIFSHGNSIFRIDTEGTNYEQLVVDAGVSVIMDFHYNEKRIYWVDLERQLLQRVFLNGSRQERVCNIEKNVSGMAINWINEEVIWSNQQEGIITVTDMKGNNSHILLSALKYPANVAVDPVERFIFWSSEVAGSLYRADLDGVGVKALLETSEKITAVSLDVLDKRLFWIQYNREGSNSLICSCDYDGGSVHISKHPTQHNLFAMSLFGDRIFYSTWKMKTIWIANKHTGKDMVRINLHSSFVPLGELKVVHPLAQPKAEDDTWEPEQKLCKLRKGNCSSTVCGQDLQSHLCMCAEGYALSRDRKYCEDVNECAFWNHGCTLGCKNTPGSYYCTCPVGFVLLPDGKRCHQLVSCPRNVSECSHDCVLTSEGPLCFCPEGSVLERDGKTCSGCSSPDNGGCSQLCVPLSPVSWECDCFPGYDLQLDEKSCAASGPQPFLLFANSQDIRHMHFDGTDYGTLLSQQMGMVYALDHDPVENKIYFAHTALKWIERANMDGSQRERLIEEGVDVPEGLAVDWIGRRFYWTDRGKSLIGRSDLNGKRSKIITKENISQPRGIAVHPMAKRLFWTDTGINPRIESSSLQGLGRLVIASSDLIWPSGITIDFLTDKLYWCDAKQSVIEMANLDGSKRRRLTQNDVGHPFAVAVFEDYVWFSDWAMPSVMRVNKRTGKDRVRLQGSMLKPSSLVVVHPLAKPGADPCLYQNGGCEHICKKRLGTAWCSCREGFMKASDGKTCLALDGHQLLAGGEVDLKNQVTPLDILSKTRVSEDNITESQHMLVAEIMVSDQDDCAPVGCSMYARCISEGEDATCQCLKGFAGDGKLCSDIDECEMGVPVCPPASSKCINTEGGYVCRCSEGYQGDGIHCLDIDECQLGEHSCGENASCTNTEGGYTCMCAGRLSEPGLICPDSTPPPHLREDDHHYSVRNSDSECPLSHDGYCLHDGVCMYIEALDKYACNCVVGYIGERCQYRDLKWWELRHAGHGQQQKVIVVAVCVVVLVMLLLLSLWGAHYYRTQKLLSKNPKNPYEESSRDVRSRRPADTEDGMSSCPQPWFVVIKEHQDLKNGGQPVAGEDGQAADGSMQPTSWRQEPQLCGMGTEQGCWIPVSSDKGSCPQVMERSFHMPSYGTQTLEGGVEKPHSLLSANPLWQQRALDPPHQMELTQ
modifications: Pro-epidermal growth factor
notes: Epidermal Growth Factor, polypeptide with a molecular weight of 6000, mitosis-promoting growth factor for corneal epithelium
With B1 the “Healing ratio (%)” value (0 hr (baseline)) was 0%, the “Healing ratio (%)” value (6 hr) was 14.49 ± 3.42% and the “Healing ratio (%)” value (12 hr) was 31.63 ± 1.29%. For the same molecule, the “Healing ratio (%)” value (24 hr) was 70.78 ± 6.91%, the “Healing ratio (%)” value (36 hr) was 96.41 ± 3.97% and the “Healing ratio (%)” value (48 hr) was 99.58 ± 1.03%.
